According to the RNAGym collection of RNA variant scans (doi:10.1073/pnas.2313332121):
Fewer inactive variants are shown than the library holds.

B1: TPR 5TU (parent)
chain: GGAUCUUCUCGAUCUAACAAAAAAGACAAAUCUGCCACAAAGCUUGAGAGCAUCUUCGGAUGCAGAGGCGGCAGCCUUCGGUGGCGCGAUAGCGCCAACGUUCUCAACUAUGACACGCAAAACGCGUGCUCCGUUGAAUGGAGUUUAUCAUG

Variants of: B1
Test: polymerase ribozyme fitness, log enrichment relative to wild type (log ratio); higher = more active; in vitro selection for triplet polymerase activity
Method in brief: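 Fitness compares each genotype's enrichment to that of the wild type on a logarithmic scale, averaging replicates with inverse-variance weights. The logarithm is base 2. Enrichment came from Illumina sequencing of input and output libraries after one triplicate round of in vitro selection, which included frozen incubation at −7 °C, of PCR-built, transcribed mutant libraries of each subunit of a heterodimeric triplet polymerase ribozyme. Only genotypes with ≥10 input reads and ≥1 read per output were kept.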

Going from GGAUCUUCUUGAUCUAACAAAAAAGACAAAUCUGCCACAAAGCUUGAGAGCAACUUCGGAUGCAGAGGCGGCAGCCUUCGGUGGCGCGAUAGCGCCAACGUUCUCAACUAUGACACGCAAAACGCGUGCUCCGUUGAAUGGAGUUUAUCAUG [C10U U53A] to GGAUCUUCUUGAUCUAACAAAAAAGACAAAUCGGCCAGAAAGCGUGAGAGCGUCUUCGGAUGCAGAGGCGGCAGCCUUCGGUGGCGUGAUAGCGCCAACGUUCUCAAUUAUGACACGUAAAACGCGUGCUCCGUUGAAUGGAGUUUAUCAUG [C10U U33G C38G U44G A52G C87U C108U C118U], the “polymerase ribozyme fitness (log ratio)” value falls from -2.96 to no more than -4.2.

GGAUCUUCUUGAUCCAACAAAAAAGACAUAUCUGCCACAAAGCUUGAGAGCAUCUUCGGAUGCAGAGGCGGCAGCCUUCGGUGGCGCGAUAGCGUCAACGUUCUCAACUAUGACACGCAAAACGCGUGCUCCGUUGAAUGGAGUUUAUCAUG [C10U U15C A29U C95U] and GGAUCUUCUUGAUCUAACAAAAAAGACAAAUCUGCCACAAAGCUAGAGAGCAUAUUCGGAUGCAGAGGCGCCAGCCUUCGGUGGCGCGAUAGCGCCAACGUUCUCAACUAUGACACGCAAAACGCGUGCUCCGUUUAAUGGAGUUUAUCAUG [C10U U45A C54A G71C G136U] cannot be ordered by “polymerase ribozyme fitness (log ratio)” value: no more than -4.2 for the first, no more than -4.2 for the second.

Going from GGAUCUUCUCAAUCUAACAAUAAAGACAAAUCUGCCACAAAGCUUGAGAGUAACGUUGGAUGCAGAGGCGGCAGCCUUCGGUGGCGCGAUAGCGCAAACGUUCUCAACUCUGACACGCAAAACGCGUGCUCCGUUGAAUGGAGUUUAUCAUG [G11A A21U C51U U53A U55G C57U C96A A110C] to GGAUCUUCUCAGUCUAACAAAAAAGACAAAUCUGCCAUAAUGCUUGAGAGCAUCUUCGGAUGCAGAGGUGGCAGCCUUCGGUUGCGCGAUAGCGCCAACGUUCUCAACUAUGACACGCAAAACGCGUGCUCCGUUGAAUGGAGUUUAUCAUG [G11A A12G C38U A41U C69U G83U], the “polymerase ribozyme fitness (log ratio)” value rises from no more than -4.2 to -3.51.

GGAUCUUCUUGAUCUAACAAAAAAGACAAAUCUGCCACAAAGCUAGAGAGCAUCUUCGGAUGCAGAGGCGGCAGCCUUCGGUGGCGCGAUAGCGCCAAAGUUCUCAACUAUGACACGCAAAACGCGUGCUCCGUUGAAUGGAGUUUAUCAUG [C10U U45A C99A] and GGAUCUUCUCAAUCUAGCAAAAAAGACAAAACUGCCACAAAGCUUGAGAGCAGUUUCGGAUGCGGAGGCGGCAGCCUUCGGUGGCGCGAUAGCGCCAACGUUCUCAACUAUGACACGCAAAACGCGUGCUCCGUUGAAUGGAGUUUAUCAUG [G11A A17G U31A U53G C54U A64G] cannot be ordered by “polymerase ribozyme fitness (log ratio)” value: no more than -4.2 for the first, no more than -4.2 for the second.

GGAUCUUCUUGAUCUAACAAAAAAGACAAAUCUGCCACAAAGCUUGAGAGCAUCUACGGAUGCAGAGGCGGCAGCCUUCGGUGGCGCGAUAGUGCCAACGUUCUCAACUAUGACACGCAAAUCGCGUGCUCCGUUGAAUGGAGUUUAUUAUU [C10U U56A C93U A122U C149U G152U] and GGAUCUUCUUGAUCUAACAAAAAAGACAAAUCUGCCACAAAGCUUGAGAGCAUCUUCGGAUGCAGAGGCGGCAGCCUUCGGUGGCGCGAUAGCGCCAACGUUCUCAACUAUGACACGCAAAACCCGUGCUCCGUUGAAGGGAGUUUACCAUG [C10U G124C U139G U148C] cannot be ordered by “polymerase ribozyme fitness (log ratio)” value: no more than -4.2 for the first, no more than -4.2 for the second.

GGAUCUUCUCAAUCUAACUAAAAAGACAAAUCUGCCACAAAGCUUGAGAGCAUCUGCGGAUGCAGAGGCGGCAGCCUUCGGCGUCGCGAUAGCGUCAACGUUCUCAACUAUGACACGCAAAACGCGUGCUCCGUUGAAUGGAGUUUAUCAUG [G11A A19U U56G U82C G84U C95U] and GGAUCUUCUUGAUCUAACAAAAAAGACAAAUCUGCCACAAAGCUUGAGAGCAUCUUCGGAUGCAGAGGCGGCAGCCUUCGGUGGCGCGAUAGCGCCAACGUUCUCAACGAUGACACGCAAAACGCGUGCUCCGUUGAAUGGCGUUUAUAAUG [C10U U109G A142C C149A] cannot be ordered by “polymerase ribozyme fitness (log ratio)” value: no more than -4.2 for the first, no more than -4.2 for the second.

Compared with GGAUCUUCUUGACCUAACAAAAAAGACAAAUCUGCCCCAAAGCUUGAGAGCAUCUUCGGAUGCAGAGGCAGCAGCCUUAGGUGACGCGAUAGCGCCAACGUUCUCACCUAUGACACGCAAAACGCGUGCUCCGUUGAAUGGAGUUUAUCAUG [C10U U13C A37C G70A C79A G84A A107C], GGAUCUUCUCAAUCUACCAAAAAAGACAAAUCUGCCACCAAGCUUGAGAGCAUCUUCGGAUGCAGAGGCGGCAGCCUUCGGUGGCGCGAUAGCGCCAACGUUCUCAACUAUGACACGCAAAACGCGUGCUCCGUUGAAUGGAGUUUAUCAUG [G11A A17C A39C] is higher in “polymerase ribozyme fitness (log ratio)” value: no more than -4.2 for the first, -3.25 for the second.

GGAUCUUCUCAAUCUACCAAAAAAGACAAAUCUGCCACAAAGCUUGAGCGCAUCUUCGGAUGCAGAGGCGGCAGCCUUCGGUGGUGCGAUUGCGCCAACGUUCUCAACUAUGACACGCAAAACGCGUGCUCCGUUUAAUGGAGUUUAUCAUG [G11A A17C A49C C85U A91U G136U] and GGAUCUUCUCAAUCUUACAAAAAUGACAAAUCUGCCACAAAGCUUGAGAGCAUCUUCGGAUGCAGAGGCGGCAGCCUUCGGUGGAGCGAUAGCGCCAACGUUCUCAACUAUGACACGCAAAACGCGUGCUCCGUUGAAUGGCGUUUAUCAUG [G11A A16U A24U C85A A142C] cannot be ordered by “polymerase ribozyme fitness (log ratio)” value: no more than -4.2 for the first, no more than -4.2 for the second.

GGAUCUUCUCAAUCUAACAAAAUAGACAAAUCUGCCACUAAGCUUGAGAGCAGUUUCGGAUGCAGAGGCGGCAGCCUUCGGUGGCGCGAUAGUGCCAACGUUCUCAACUAUGACACGCAAAUCGCGUGCUCCGUUGAAUGGGGUUUAUCAUG [G11A A23U A39U U53G C54U C93U A122U A142G] and GGAUCUUCUUGAUCAAACAAAAUAGACAAAUAUGCCACAAAGCUUGAGAGUAUCGUCGGAUGCAGAGGCGGCAGCCUUCGGUGGCGCGAUAGCGCCAACGUUCUCAACUAGGACACGCAAAACGCGUGCUCCGUUGAAUGGAGUUUAUCAUG [C10U U15A A23U C32A C51U U55G U111G] cannot be ordered by “polymerase ribozyme fitness (log ratio)” value: no more than -4.2 for the first, no more than -4.2 for the second.

For GGAUCUUCUCAAUCUAACUAAAAAGACAAAUCUGCCACAAAGCUUGAGAGCAUCUUCGGAAGCAGAGGCGGCAGCCUUCGGUGCAGCGAUAGCGCCAACGUUGUCAACUAUGACACGCAAAACGCGUGCUCCGUUGAAUGGAGUUUAUCAUG [G11A A19U U61A G84C C85A C103G], the “polymerase ribozyme fitness (log ratio)” value was no more than -4.2.
